Test results published in article PMC9482650, “Quantitative fragmentomics allow affinity mapping of interactomes” (Nature Communications, 2022).

T1: APBA3_2, O96018
T1 sequence (O96018 480-570, limits assumed, looked up): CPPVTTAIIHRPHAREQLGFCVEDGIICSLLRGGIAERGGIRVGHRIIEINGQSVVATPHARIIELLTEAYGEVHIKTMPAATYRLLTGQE

T2: GRIP1_1, Q9Y3R0
T2 sequence (Q9Y3R0 48-146, limits assumed, looked up): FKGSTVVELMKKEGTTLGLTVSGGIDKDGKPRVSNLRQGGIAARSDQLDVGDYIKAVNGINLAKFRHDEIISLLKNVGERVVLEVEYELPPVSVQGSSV

T3: INTU, Q9ULD6
T3 sequence (Q9ULD6 180-273, limits assumed, looked up): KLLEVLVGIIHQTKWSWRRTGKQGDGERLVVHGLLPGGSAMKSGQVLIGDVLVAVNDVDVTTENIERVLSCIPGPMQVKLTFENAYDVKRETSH

T4: LNX2_3, Q8N448
T4 sequence (Q8N448 463-564, limits assumed, looked up): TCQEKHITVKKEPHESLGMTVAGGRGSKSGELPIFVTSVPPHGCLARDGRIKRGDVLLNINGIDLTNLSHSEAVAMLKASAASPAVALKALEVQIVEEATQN

T5: MPDZ_2, O75970
T5 sequence (O75970 252-347, limits assumed, looked up): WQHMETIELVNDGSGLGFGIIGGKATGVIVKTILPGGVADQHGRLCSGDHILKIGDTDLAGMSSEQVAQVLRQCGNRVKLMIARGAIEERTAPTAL

T6: NHERF3_2, Q5T2W1
T6 sequence (Q5T2W1 129-225, limits assumed, looked up): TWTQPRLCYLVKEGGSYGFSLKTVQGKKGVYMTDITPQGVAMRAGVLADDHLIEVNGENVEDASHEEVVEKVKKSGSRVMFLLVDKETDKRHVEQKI

T7: PDZD11, Q5EBL8
T7 sequence (Q5EBL8 42-139, limits assumed, looked up): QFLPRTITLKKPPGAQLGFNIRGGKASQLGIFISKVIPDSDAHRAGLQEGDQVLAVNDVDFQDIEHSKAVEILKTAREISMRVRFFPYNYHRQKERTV

T8: PDZD2_6, O15018
T8 sequence (O15018 2745-2839, limits assumed, looked up): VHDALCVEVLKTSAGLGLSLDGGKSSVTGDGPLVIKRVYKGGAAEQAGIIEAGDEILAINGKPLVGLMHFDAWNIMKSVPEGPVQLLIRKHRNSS

T9: PDZD4, Q76G19
T9 sequence (Q76G19 125-224, limits assumed, looked up): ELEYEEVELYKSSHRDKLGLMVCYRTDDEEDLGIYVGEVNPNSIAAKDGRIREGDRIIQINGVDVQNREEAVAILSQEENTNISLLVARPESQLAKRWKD

T10: PTPN13_5, Q12923
T10 sequence (Q12923 1877-1975, limits assumed, looked up): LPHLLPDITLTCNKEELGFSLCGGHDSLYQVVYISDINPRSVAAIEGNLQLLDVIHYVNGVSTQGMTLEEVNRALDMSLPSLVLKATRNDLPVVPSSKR

T11: SHANK2, Q9UPX8
T11 sequence (Q9UPX8 621-730, limits assumed, looked up): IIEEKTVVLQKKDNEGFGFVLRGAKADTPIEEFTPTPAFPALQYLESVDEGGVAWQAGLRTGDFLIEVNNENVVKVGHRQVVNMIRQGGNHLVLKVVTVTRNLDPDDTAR

T12: SHROOM4, Q9ULL8
T12 sequence (Q9ULL8 5-102, limits assumed, looked up): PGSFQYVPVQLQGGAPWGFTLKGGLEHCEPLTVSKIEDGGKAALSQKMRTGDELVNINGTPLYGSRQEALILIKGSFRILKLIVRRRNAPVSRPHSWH

B1: GRASP, Q7Z6J2 (peptide)
chain: RSLEEEESQL
B2: CYSLTR2, Q9NS75 (peptide)
chain: SVWLRKETRV
B3: HPV16-E6, P03126 (peptide)
chain: SSRTRRETQL
B4: HPV67-E6, A4U7F2 (peptide)
chain: SRPQRTQTQV
B5: CNKSR2, Q8WXI2 (peptide)
chain: HTHSYIETHV
B6: MYO18A, Q92614 (peptide)
chain: TEAKLTETNA

Molecular target: T1, APBA3_2, O96018
Assay: holdup assay
Parameters: key: below the threshold = too weak to quantify, mostly under pKd 3.1 to 4
Conditions: plain residues with an end cap or a label only (N-terminal biotin on a linker: ttds)

| Binder | pKd |
| --- | --- |
| B1 | 4.18 |
| B2 | below the threshold |
| B3 | below the threshold |
| B4 | below the threshold |

Molecular target: DLG2_1, Q15700
Assay: holdup assay
Parameters: key: below the threshold = too weak to quantify, mostly under pKd 3.1 to 4
Conditions: plain residues with an end cap or a label only (N-terminal biotin on a linker: ttds)

| Binder | pKd |
| --- | --- |
| B1 | below the threshold |
| B2 | 5.26 |
| B3 | 4.92 |
| B4 | 4.25 |

Molecular target: DLG5_2, Q8TDM6
Sequence (Q8TDM6 714-800): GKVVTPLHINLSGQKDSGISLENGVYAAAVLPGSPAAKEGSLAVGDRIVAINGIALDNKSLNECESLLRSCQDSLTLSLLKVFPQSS
Assay: holdup assay
Parameters: key: below the threshold = too weak to quantify, mostly under pKd 3.1 to 4
Conditions: plain residues with an end cap or a label only (N-terminal biotin on a linker: ttds)

| Binder | pKd |
| --- | --- |
| B1 | below the threshold |
| B2 | 4.71 |
| B3 | 4.12 |
| B4 | 4.16 |

Molecular target: T2, GRIP1_1, Q9Y3R0
Assay: holdup assay
Parameters: key: below the threshold = too weak to quantify, mostly under pKd 3.1 to 4
Conditions: plain residues with an end cap or a label only (N-terminal biotin on a linker: ttds)

| Binder | pKd |
| --- | --- |
| B1 | below the threshold |
| B2 | below the threshold |
| B3 | below the threshold |
| B4 | below the threshold |

Molecular target: T3, INTU, Q9ULD6
Assay: holdup assay
Parameters: key: below the threshold = too weak to quantify, mostly under pKd 3.1 to 4
Conditions: plain residues with an end cap or a label only (N-terminal biotin on a linker: ttds)

| Binder | pKd |
| --- | --- |
| B2 | below the threshold |
| B3 | below the threshold |
| B4 | below the threshold |

Molecular target: LMO7, Q8WWI1
Sequence (Q8WWI1 1037-1138): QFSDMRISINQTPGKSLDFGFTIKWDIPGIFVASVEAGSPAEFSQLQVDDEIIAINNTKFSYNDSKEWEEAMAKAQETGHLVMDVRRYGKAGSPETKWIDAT
Assay: holdup assay
Parameters: key: below the threshold = too weak to quantify, mostly under pKd 3.1 to 4
Conditions: plain residues with an end cap or a label only (N-terminal biotin on a linker: ttds)

| Binder | pKd |
| --- | --- |
| B1 | 4.14 |
| B2 | below the threshold |
| B3 | 4.15 |

Molecular target: T4, LNX2_3, Q8N448
Assay: holdup assay
Parameters: key: below the threshold = too weak to quantify, mostly under pKd 3.1 to 4
Conditions: plain residues with an end cap or a label only (N-terminal biotin on a linker: ahx)

| Binder | pKd |
| --- | --- |
| B5 | below the threshold |
| B6 | below the threshold |

Same assay, conditions: plain residues with an end cap or a label only (N-terminal biotin on a linker: ttds)

| Binder | pKd |
| --- | --- |
| B1 | below the threshold |
| B2 | below the threshold |
| B3 | below the threshold |
| B4 | below the threshold |

Molecular target: MAGI1_4, Q96QZ7
Sequence (Q96QZ7 other isoform, or with tags, fused parts or gaps): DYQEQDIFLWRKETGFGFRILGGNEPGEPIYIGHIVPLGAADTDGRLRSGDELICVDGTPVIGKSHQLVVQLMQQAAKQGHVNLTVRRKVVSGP
Assay: holdup assay
Parameters: key: below the threshold = too weak to quantify, mostly under pKd 3.1 to 4
Conditions: plain residues with an end cap or a label only (N-terminal biotin on a linker: ttds)

| Binder | pKd |
| --- | --- |
| B1 | below the threshold |
| B2 | below the threshold |
| B3 | below the threshold |
| B4 | below the threshold |

Molecular target: MAGI1_6, Q96QZ7
Sequence (Q96QZ7 1146-1238): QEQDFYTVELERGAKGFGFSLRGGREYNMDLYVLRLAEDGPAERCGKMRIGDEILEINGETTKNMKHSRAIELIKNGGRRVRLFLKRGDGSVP
Assay: holdup assay
Parameters: key: below the threshold = too weak to quantify, mostly under pKd 3.1 to 4
Conditions: plain residues with an end cap or a label only (N-terminal biotin on a linker: ttds)

| Binder | pKd |
| --- | --- |
| B1 | below the threshold |
| B2 | below the threshold |
| B3 | below the threshold |
| B4 | below the threshold |

Molecular target: MAGI3_3, Q5TCQ9
Sequence (Q5TCQ9 572-655): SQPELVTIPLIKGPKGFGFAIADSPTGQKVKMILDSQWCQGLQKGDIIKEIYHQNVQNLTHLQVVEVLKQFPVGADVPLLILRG
Assay: holdup assay
Parameters: key: below the threshold = too weak to quantify, mostly under pKd 3.1 to 4
Conditions: plain residues with an end cap or a label only (N-terminal biotin on a linker: ttds)

| Binder | pKd |
| --- | --- |
| B1 | below the threshold |
| B2 | below the threshold |
| B3 | below the threshold |
| B4 | below the threshold |

Molecular target: MAGI3_5, Q5TCQ9
Sequence (Q5TCQ9 847-941): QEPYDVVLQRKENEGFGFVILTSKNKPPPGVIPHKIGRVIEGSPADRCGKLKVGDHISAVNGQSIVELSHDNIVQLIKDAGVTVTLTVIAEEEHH
Assay: holdup assay
Parameters: key: below the threshold = too weak to quantify, mostly under pKd 3.1 to 4
Conditions: plain residues with an end cap or a label only (N-terminal biotin on a linker: ttds)

| Binder | pKd |
| --- | --- |
| B1 | below the threshold |
| B2 | below the threshold |
| B3 | 3.96 |
| B4 | below the threshold |

Molecular target: MAGI3_6, Q5TCQ9
Sequence (Q5TCQ9 1014-1103): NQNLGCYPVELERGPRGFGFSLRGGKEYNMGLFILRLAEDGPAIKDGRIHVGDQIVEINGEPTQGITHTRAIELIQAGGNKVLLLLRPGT
Assay: holdup assay
Parameters: key: below the threshold = too weak to quantify, mostly under pKd 3.1 to 4
Conditions: plain residues with an end cap or a label only (N-terminal biotin on a linker: ttds)

| Binder | pKd |
| --- | --- |
| B1 | 4.14 |
| B2 | below the threshold |
| B3 | below the threshold |
| B4 | below the threshold |

Molecular target: MAGIX, Q9H6Y5
Sequence (Q9H6Y5 118-211): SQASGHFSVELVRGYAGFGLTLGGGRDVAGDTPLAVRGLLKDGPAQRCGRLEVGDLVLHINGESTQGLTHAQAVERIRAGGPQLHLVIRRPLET
Assay: holdup assay
Parameters: key: below the threshold = too weak to quantify, mostly under pKd 3.1 to 4
Conditions: plain residues with an end cap or a label only (N-terminal biotin on a linker: ttds)

| Binder | pKd |
| --- | --- |
| B1 | below the threshold |
| B2 | below the threshold |
| B3 | below the threshold |
| B4 | below the threshold |

Molecular target: T5, MPDZ_2, O75970
Assay: holdup assay
Parameters: key: below the threshold = too weak to quantify, mostly under pKd 3.1 to 4
Conditions: plain residues with an end cap or a label only (N-terminal biotin on a linker: ttds)

| Binder | pKd |
| --- | --- |
| B1 | below the threshold |
| B2 | below the threshold |
| B3 | below the threshold |
| B4 | below the threshold |

Molecular target: T6, NHERF3_2, Q5T2W1
Assay: holdup assay
Parameters: key: below the threshold = too weak to quantify, mostly under pKd 3.1 to 4
Conditions: plain residues with an end cap or a label only (N-terminal biotin on a linker: ttds)

| Binder | pKd |
| --- | --- |
| B1 | below the threshold |
| B2 | below the threshold |
| B3 | below the threshold |
| B4 | below the threshold |

Molecular target: PARD3B_2, Q8TEW8
Sequence (Q8TEW8 376-471): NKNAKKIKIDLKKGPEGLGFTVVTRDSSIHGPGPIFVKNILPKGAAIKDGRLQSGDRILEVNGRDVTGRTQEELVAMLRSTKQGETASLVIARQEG
Assay: holdup assay
Parameters: key: below the threshold = too weak to quantify, mostly under pKd 3.1 to 4
Conditions: plain residues with an end cap or a label only (N-terminal biotin on a linker: ttds)

| Binder | pKd |
| --- | --- |
| B1 | below the threshold |
| B2 | below the threshold |
| B3 | below the threshold |

Molecular target: T7, PDZD11, Q5EBL8
Assay: holdup assay
Parameters: key: below the threshold = too weak to quantify, mostly under pKd 3.1 to 4
Conditions: plain residues with an end cap or a label only (N-terminal biotin on a linker: ttds)

| Binder | pKd |
| --- | --- |
| B1 | below the threshold |
| B2 | below the threshold |
| B3 | below the threshold |
| B4 | below the threshold |

Molecular target: T8, PDZD2_6, O15018
Assay: holdup assay
Parameters: key: below the threshold = too weak to quantify, mostly under pKd 3.1 to 4
Conditions: plain residues with an end cap or a label only (N-terminal biotin on a linker: ttds)

| Binder | pKd |
| --- | --- |
| B1 | below the threshold |
| B2 | below the threshold |
| B3 | below the threshold |
| B4 | below the threshold |

Molecular target: T9, PDZD4, Q76G19
Assay: holdup assay
Parameters: key: below the threshold = too weak to quantify, mostly under pKd 3.1 to 4
Conditions: plain residues with an end cap or a label only (N-terminal biotin on a linker: ttds)

| Binder | pKd |
| --- | --- |
| B1 | below the threshold |
| B2 | below the threshold |
| B3 | below the threshold |
| B4 | below the threshold |

Molecular target: PTPN13_2, Q12923
Sequence (Q12923 1363-1462): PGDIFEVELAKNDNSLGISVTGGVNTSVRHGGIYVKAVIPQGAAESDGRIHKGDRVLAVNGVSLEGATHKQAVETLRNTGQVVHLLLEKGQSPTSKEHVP
Assay: holdup assay
Parameters: key: below the threshold = too weak to quantify, mostly under pKd 3.1 to 4
Conditions: plain residues with an end cap or a label only (N-terminal biotin on a linker: ttds)

| Binder | pKd |
| --- | --- |
| B1 | below the threshold |
| B2 | below the threshold |
| B3 | below the threshold |
| B4 | below the threshold |

Molecular target: T10, PTPN13_5, Q12923
Assay: holdup assay
Parameters: key: below the threshold = too weak to quantify, mostly under pKd 3.1 to 4
Conditions: plain residues with an end cap or a label only (N-terminal biotin on a linker: ttds)

| Binder | pKd |
| --- | --- |
| B1 | below the threshold |
| B2 | below the threshold |
| B3 | below the threshold |
| B4 | below the threshold |

Molecular target: RIMS2, Q9UQ26
Sequence (Q9UQ26 637-758): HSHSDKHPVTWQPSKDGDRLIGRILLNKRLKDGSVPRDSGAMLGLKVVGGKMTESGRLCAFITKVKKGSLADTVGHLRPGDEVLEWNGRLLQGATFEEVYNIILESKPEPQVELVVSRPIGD
Assay: holdup assay
Parameters: key: below the threshold = too weak to quantify, mostly under pKd 3.1 to 4
Conditions: plain residues with an end cap or a label only (N-terminal biotin on a linker: ttds)

| Binder | pKd |
| --- | --- |
| B1 | below the threshold |
| B2 | below the threshold |
| B3 | below the threshold |
| B4 | below the threshold |

Molecular target: T11, SHANK2, Q9UPX8
Assay: holdup assay
Parameters: key: below the threshold = too weak to quantify, mostly under pKd 3.1 to 4
Conditions: plain residues with an end cap or a label only (N-terminal biotin on a linker: ttds)

| Binder | pKd |
| --- | --- |
| B1 | 4.33 |
| B2 | below the threshold |
| B3 | below the threshold |
| B4 | below the threshold |

Molecular target: T12, SHROOM4, Q9ULL8
Assay: holdup assay
Parameters: key: below the threshold = too weak to quantify, mostly under pKd 3.1 to 4
Conditions: plain residues with an end cap or a label only (N-terminal biotin on a linker: ttds)

| Binder | pKd |
| --- | --- |
| B1 | below the threshold |
| B2 | below the threshold |
| B3 | below the threshold |
| B4 | below the threshold |

Molecular target: TJP1_1, Q07157
Sequence (Q07157 18-120): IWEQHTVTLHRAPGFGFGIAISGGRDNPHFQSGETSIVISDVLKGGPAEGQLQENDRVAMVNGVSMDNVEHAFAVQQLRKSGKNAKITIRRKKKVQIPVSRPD
Assay: holdup assay
Parameters: key: below the threshold = too weak to quantify, mostly under pKd 3.1 to 4
Conditions: plain residues with an end cap or a label only (N-terminal biotin on a linker: ttds)

| Binder | pKd |
| --- | --- |
| B1 | below the threshold |
| B2 | 4.78 |
| B3 | 4.22 |
| B4 | below the threshold |
